Test results reported in publication PMC4753521, “Real-time and simultaneous monitoring of the phosphorylation and enhanced interaction of p53 and XPC acidic domains with the TFIIH p62 subunit” (Oncogenesis, 2015).
Non-standard residues stand in square brackets, D forms with d. No end group written: not given here. pT = C[C@@H](OP(=O)(O)O)[C@H](N)C(=O)O; pS = N[C@@H](COP(=O)(O)O)C(=O)O

T1: human TFIIH p62-PH domain (residues 1–108) (human, UniProt P32780 1-108)
T1 construct: PH domain of the p62 subunit of the general transcription factor TFIIH, human, residues 1-108; Used 15N- or 13C/15N-labelled in the NMR experiments, unlabelled when added to XPC-AF; also called pleckstrin homology (PH) domain of the p62 subunit of TFIIH
T1 sequence (looked up): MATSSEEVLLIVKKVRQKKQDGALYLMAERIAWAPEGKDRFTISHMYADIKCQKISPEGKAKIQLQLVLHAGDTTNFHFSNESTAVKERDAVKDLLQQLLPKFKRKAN


How the values were obtained:
Settings in all cases: both partners purified
[1] = molecular target: T1, human TFIIH p62-PH domain (residues …); test: ITC; VP-ITC; 100 μM XPC peptide in the syringe (25 × 20 μl injections), 2 ml of 10 μM p62-PH in the cell; 20 °C; 20 mM potassium phosphate (pH 6.8)
[2] = molecular target: T1, human TFIIH p62-PH domain (residues …); test: NMR titration; 1H,15N HSQC perturbation: p53-TAD2 peptides added to 15N-labeled p62-PH at a molar ratio of 1:2.5 (p62:p53); 20 mM potassium phosphate (pH 6.8), 1 mM ATP, 10 mM MgCl2, 5 mM deuterated DTT, 10% D2O; 32 °C
[3] = molecular target: T1, human TFIIH p62-PH domain (residues …); test: NMR titration; real-time NMR of 150 μl of 50 μM complex of labeled XPC-AF and labeled p62-PH; 2.5 μg CK2 added; 20 mM potassium phosphate (pH 6.8), 1 mM ATP, 10 mM MgCl2, 5 mM deuterated DTT, 10% D2O

Kd [1] [nM] | binding result [2] | Binder | also measured
132 | – | EEEEESENDWEEVEELSEP (peptide, UniProt Q01831 124-142, looked up, XPC, human, residues 124-142; also called unphosphorylated XPC peptide; source: synthetic peptide, bought: Sigma Genosys Japan) [unphosphorylated peptide of human XPC (residues 124–142)] | –
– | binds | DDLML[pS]PDDIEQWFTEDPGPDE (peptide, UniProt P04637 41-62, looked up, p53 TAD2, human, residues 41-62; also called Ser46-phosphorylated p53-TAD2; source: synthetic peptide, bought: Sigma Genosys Japan) [Ser46-phosphorylated peptide of human p53-TAD2 (residues 41–62)] | –
– | binds | DDLML[pS]PDDIEQWF[pT]EDPGPDE (peptide, UniProt P04637 41-62, looked up, p53 TAD2, human, residues 41-62; also called Ser46, Thr55 double-phosphorylated p53-TAD2; source: synthetic peptide, bought: Sigma Genosys Japan) [Ser46, Thr55 double-phosphorylated peptide of human p53-TAD2 (residues 41–62)] | –
– | binds | DDLMLSPDDIEQWF[pT]EDPGPDE (peptide, UniProt P04637 41-62, looked up, p53 TAD2, human, residues 41-62; also called Thr55-phosphorylated p53-TAD2; TP; source: synthetic peptide, bought: Sigma Genosys Japan) [Thr55-phosphorylated peptide of human p53-TAD2 (residues 41–62)] | –
– | – | AHHLKRGATMNEDSNEEEEE[pS]ENDWEEVEELSEPVLGDVRESTAFSRS (domain or fragment, UniProt Q01831 109-156, looked up, also: 13C/15N-labeled, acidic fragment of the nucleotide excision repair factor XPC, human, residues 109-156; 13C/15N-labelled; in the complex with p62-PH phosphorylation of Ser129 reached ~80% at ~2 h; also called Ser129-phosphorylated XPC-AF; source: E. coli Rosetta 2 (DE3) pLysS, purified (Ni-NTA, thrombin digestion, Superdex30); phosphorylated by CK2 in the NMR tube) [human XPC-AF (residues 109–156) phosphorylated at Ser129 by CK2] | binding result [3]: binds
41 | – | EEEEE[pS]ENDWEEVEELSEP (peptide, UniProt Q01831 124-142, looked up, XPC, human, residues 124-142; also called Ser129-phosphorylated XPC peptide; source: synthetic peptide, bought: Sigma Genosys Japan) [Ser129-phosphorylated peptide of human XPC (residues 124–142)] | –
